Experimental data as given in PMC3894988, “Human Variants in the Neuronal Basic Helix-Loop-Helix/Per-Arnt-Sim (bHLH/PAS) Transcription Factor Complex NPAS4/ARNT2 Disrupt Function” (PLoS ONE, 2014).

How the values were obtained:
[1] = target: endogenous ARNT2 (HEK293T) (human (endogenous in HEK293T)) (UniProt Q9HBZ2)
[2] = target: ARNT2, overexpressed (human Aryl hydrocarbon Receptor Nuclear Translator 2) (human, UniProt Q9HBZ2 1-717); assay: cell-based or functional assay
Chain of ARNT2, overexpressed (human Aryl hydrocarbon Receptor Nuclear Translator 2) (Q9HBZ2 whole entry): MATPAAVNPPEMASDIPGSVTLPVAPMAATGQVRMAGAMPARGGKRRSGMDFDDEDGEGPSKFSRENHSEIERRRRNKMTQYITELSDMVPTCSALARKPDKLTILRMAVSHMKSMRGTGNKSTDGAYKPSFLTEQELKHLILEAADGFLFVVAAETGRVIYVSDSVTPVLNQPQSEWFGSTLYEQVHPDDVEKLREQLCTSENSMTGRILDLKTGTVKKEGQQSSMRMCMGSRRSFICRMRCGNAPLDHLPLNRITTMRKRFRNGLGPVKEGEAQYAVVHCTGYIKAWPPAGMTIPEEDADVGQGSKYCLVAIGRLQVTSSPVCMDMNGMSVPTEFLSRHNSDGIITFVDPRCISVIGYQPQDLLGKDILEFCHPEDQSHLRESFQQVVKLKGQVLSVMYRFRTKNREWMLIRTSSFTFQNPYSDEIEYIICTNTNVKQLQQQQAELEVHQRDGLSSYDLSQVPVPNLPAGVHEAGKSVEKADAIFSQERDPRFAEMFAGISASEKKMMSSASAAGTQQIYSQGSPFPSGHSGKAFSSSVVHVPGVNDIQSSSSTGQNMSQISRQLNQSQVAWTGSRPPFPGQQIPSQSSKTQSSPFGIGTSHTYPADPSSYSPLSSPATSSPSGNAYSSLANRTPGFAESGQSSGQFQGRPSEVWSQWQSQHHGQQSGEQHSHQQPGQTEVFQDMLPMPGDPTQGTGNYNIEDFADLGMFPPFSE

Chain of endogenous ARNT2 (HEK293T) (human (endogenous in HEK293T)) (Q9HBZ2 whole entry): as above

B1: NPAS4.F147S-mycFlag (natural protein)
chain: MYRSTKGASKARRDQINAEIRNLKELLPLAEADKVRLSYLHIMSLACIYTRKGVFFAGGTPLAGPTGLLSAQELEDIVAALPGFLLVFTAEGKLLYLSESVSEHLGHSMVDLVAQGDSIYDIIDPADHLTVRQQLTLPSALDTDRLSRCRFNTSKSLRRQSAGNKLVLIRGRFHAHPPGAYWAGNPVFTAFCAPLEPRPRPGPGPGPGPASLFLAMFQSRHAKDLALLDISESVLIYLGFERSELLCKSWYGLLHPEDLAHASAQHYRLLAESGDIQAEMVVRLQAKTGGWAWIYCLLYSEGPEGPITANNYPISDMEAWSLRQQLNSEDTQAAYVLGTPTMLPSFPENILSQEECSSTNPLFTAALGAPRSTSFPSAPELSVVSASEELPRPSKELDFSYLTFPSGPEPSLQAELSKDLVCTPPYTPHQPGGCAFLFSLHEPFQTHLPTPSSTLQEQLTPSTATFSDQLTPSSATFPDPLTSPLQGQLTETSVRSYEDQLTPCTSTFPDQLLPSTATFPEPLGSPAHEQLTPPSTAFQAHLDSPSQTFPEQLSPNPTKTYFAQEGCSFLYEKLPPSPSSPGNGDCTLLALAQLRGPLSVDVPLVPEGLLTPEASPVKQSFFHYSEKEQNEIDRLIQQISQLAQGMDRPFSAEAGTGGLEPLGGLEPLDSNLSLSGAGPPVLSLDLKPWKCQELDFLADPDNMFLEETPVEDIFMDLSTPDPSEEWGSGDPEAEGPGGAPSPCNNLSPEDHSFLEDLATYETAFETGVSAFPYDGFTDELHQLQSQVQDSFHEDGSGGEPTF
B1 was tested, and the induction of BDNF exon I mRNA in 293TREX cells (quantitative real-time PCR), reduction against WT NPAS4 [1] was 90%.

B2: NPAS4.F147A-mycFlag (natural protein, human, UniProt Q8IUM7 1-802, looked up)
chain: MYRSTKGASKARRDQINAEIRNLKELLPLAEADKVRLSYLHIMSLACIYTRKGVFFAGGTPLAGPTGLLSAQELEDIVAALPGFLLVFTAEGKLLYLSESVSEHLGHSMVDLVAQGDSIYDIIDPADHLTVRQQLTLPSALDTDRLARCRFNTSKSLRRQSAGNKLVLIRGRFHAHPPGAYWAGNPVFTAFCAPLEPRPRPGPGPGPGPASLFLAMFQSRHAKDLALLDISESVLIYLGFERSELLCKSWYGLLHPEDLAHASAQHYRLLAESGDIQAEMVVRLQAKTGGWAWIYCLLYSEGPEGPITANNYPISDMEAWSLRQQLNSEDTQAAYVLGTPTMLPSFPENILSQEECSSTNPLFTAALGAPRSTSFPSAPELSVVSASEELPRPSKELDFSYLTFPSGPEPSLQAELSKDLVCTPPYTPHQPGGCAFLFSLHEPFQTHLPTPSSTLQEQLTPSTATFSDQLTPSSATFPDPLTSPLQGQLTETSVRSYEDQLTPCTSTFPDQLLPSTATFPEPLGSPAHEQLTPPSTAFQAHLDSPSQTFPEQLSPNPTKTYFAQEGCSFLYEKLPPSPSSPGNGDCTLLALAQLRGPLSVDVPLVPEGLLTPEASPVKQSFFHYSEKEQNEIDRLIQQISQLAQGMDRPFSAEAGTGGLEPLGGLEPLDSNLSLSGAGPPVLSLDLKPWKCQELDFLADPDNMFLEETPVEDIFMDLSTPDPSEEWGSGDPEAEGPGGAPSPCNNLSPEDHSFLEDLATYETAFETGVSAFPYDGFTDELHQLQSQVQDSFHEDGSGGEPTF
With B2 the “activity on the 6xCME-Luc luciferase reporter gene in HEK293T cells, percent of WT NPAS4” value [2] was ~65 % of wt.
